Reference: publication PMC10403129

How the values were obtained:
hnRNP U WT (SP120) (rat) = assay: EMSA; conditions: C50, competitive with equimolar vector, 5 mM Mg2+, 10 mM MgCl2 in gel, EMSA: 35 mM Tris-HCl pH 8.0, 72 mM KCl, 5 mM MgCl2, 5 mM DTT, 5 mM spermidine, 50 ug/ml BSA, 37 C, on-bead: 50 mM Tris-HCl pH 8.0, 120 mM KCl
hnRNP U ΔSAP (rat) = assay: EMSA; conditions: C50, competitive with equimolar vector, 5 mM Mg2+, 10 mM MgCl2 in gel, EMSA: 35 mM Tris-HCl pH 8.0, 72 mM KCl, 5 mM MgCl2, 5 mM DTT, 5 mM spermidine, 50 ug/ml BSA, 37 C, on-bead: 50 mM Tris-HCl pH 8.0, 120 mM KCl
GST-RG (rat) = assay: on-bead pull-down; conditions: Hill 1.8, 100 ng pBS/FTZ, 2 ul beads, 10 mM Mg2+, EMSA: 35 mM Tris-HCl pH 8.0, 72 mM KCl, 5 mM MgCl2, 5 mM DTT, 5 mM spermidine, 50 ug/ml BSA, 37 C, on-bead: 50 mM Tris-HCl pH 8.0, 120 mM KCl, 10 mM MgCl2 …
GST-SAP (rat) = assay: on-bead pull-down; conditions: Hill 4.6, 100 ng pBS/FTZ, 2 ul beads, 10 mM Mg2+, EMSA: 35 mM Tris-HCl pH 8.0, 72 mM KCl, 5 mM MgCl2, 5 mM DTT, 5 mM spermidine, 50 ug/ml BSA, 37 C, on-bead: 50 mM Tris-HCl pH 8.0, 120 mM KCl, 10 mM MgCl2 …
GST-SAP-RG (rat) = assay: on-bead pull-down; conditions: Hill 2.5; 100 ng pBS/FTZ, 10 mM Mg2+; unit implied by comparison; EMSA: 35 mM Tris-HCl pH 8.0, 72 mM KCl, 5 mM MgCl2, 5 mM DTT, 5 mM spermidine, 50 ug/ml BSA, 37 C; on-bead: 50 mM Tris-HCl pH 8.0, 120 mM KCl, 10 mM MgCl2 …

## FTZ S/MAR insert
hnRNP U WT (SP120) (rat)
  K half: 14 nM
hnRNP U ΔSAP (rat)
  K half: 32 nM
GST-RG (rat)
  half-saturation protein amount (pmol (on beads)): 13
GST-SAP (rat)
  half-saturation protein amount (pmol (on beads)): 22.5
GST-SAP-RG (rat)
  Kd (pmol (on beads)): 6.7
